Here are results for 5 molecules from patent US10533231B2, “Artificial bioluminescent enzyme” (NATIONAL INSTITUTE OF ADVANCED INDUSTRIAL SCIENCE AND …, priority 2012, dated 2020).

Residue numbers refer to the chain shown, from its start.

The subject of data set [1] is COS-7 cells. The data set is described as follows: Luminescence of ALuc25 to ALuc32 in lysate and medium (Example 1-18). The class given is cell-based. The settings on record: 20 hours after plasmid introduction. On the procedure:
After the insertion of a gene encoding an enzyme sequence as mentioned above into a mammalian expression vector (pcDNA3.1 (+)), each plasmid was introduced into COS-7 cells. By the transformation of these cells, each luciferase was expressed, and some of the luciferase was secreted out of the cells and some of the luciferase retained in the cells. 20 hours after the plasmid introduction, media of the cells were sampled, and the remaining cells were lysed with a lysis buffer (lysate preparation). Immediately after 50 μL of assay solution (containing a substrate) was simultaneously added to each prepared medium (5 μL) or lysate (5 μL), the luminescence value was measured using a luminescence analyzer (LAS-4000; FujiFilm) (n=3) (FIG. 18).

The nature of data set [2]: Prolonged activity stability of ALucs secreted in medium (Example 1-19). The class given is physicochemical. The settings on record: for prolonged enzymatic activity stability: Day 0 to Day 25. The procedure:
The prolonged activity stability of the artificial luciferases (ALucs) developed in the present invention was examined. First, a plasmid expressing each artificial luciferase (ALuc16, ALuc22, ALuc23, ALuc24, ALuc25, and ALuc30) (in the figure, each is referred to as A16, A22, A23, A24, A25, and A30) was introduced into COS-7 cells, and then culturing was continued for 24 hours. By the culturing, each artificial luciferase was secreted into the medium. The artificial luciferase secreted in the medium was collected, and a difference in enzymatic activity was measured under the same conditions in the following manner. On the first day (Day 0), 50 μL of assay solution (containing native coelenterazine, produced by Promega) was added to 5 μL of each medium, and the luminescence value (enzymatic activity) was measured using an LAS-4000 (produced by FujiFilm). In the same manner, the luminescence value on Day 8, Day 16, and Day 25 was compared with the luminescence value on Day 0 (FIG. 19 (A)).

Data set [3] can be described thus: Temporal change in luminescence after substrate injection, medium 25 days after expression (Example 1-19). The format is biochemical. The procedure:
50 μL of an assay solution (containing native coelenterazine, produced by Promega) was added to 5 μL of each medium 25 days after the expression, and the luminescence value (enzymatic activity) was measured using an LAS-4000 (produced by FujiFilm).

Data set [4] relates to COS-7 cells. The data set can be described thus: Luminescence intensity of tag-containing ALucs secreted into medium (Example 1-21). The format is cell-based. The settings on record: culturing one day, Promega kit with nCTZ. On the procedure: To compare the luminescence intensity of novel luciferases, a comparison experiment was performed under the same conditions as Example 1-2 (COS-7 cells, culturing for one day, using an assay kit produced by Promega) (FIG. 21 (B)). Finally, the luminescence intensity of each luciferase secreted into the medium was compared using an assay kit (containing native coelenterazine (nCTZ)) produced by Promega.

In data set [5] the test system is COS-7 cells. The data set is described as follows: Enzymatic activity confirmation of ALuc (section 3-1, 3-2). The class given is cell-based, African monkey. The settings on record: vs conventional copepod luciferases. The procedure: First, using a known lipid reagent for gene introduction, an expression vector encoding ALuc is introduced into African monkey-derived COS-7 cells; as a control, an expression vector having a known GLuc without any mutation into the cells is also introduced in the same manner. At a predetermined time (from 10 to 20 hours, for example, 16 hours) after the introduction of the vector, a cell lysate is prepared using a known lysis reagent.
Thereafter, the cell lysate is mixed with a known substrate solution containing coelenterazine, and its color intensity, temporal stability in luminescence, etc., are measured.
The luminescence intensity may be found by measuring the intensity at a specific wavelength using a known luminescence spectrophotometer after addition of a known substrate. By performing the measurement every minute, the temporal stability in luminescence can be evaluated. To measure a shift to a longer wavelength, scanning of the entire wavelength is necessary.

For data set [6], the system named is COS-7 cells. The data set can be described thus: Luminescence characteristics of tag-containing ALucs (Example 1-22). The format is cell-based. As to conditions: medium two days after gene transfer. The procedure: To compare the relative luminescence intensity of these luciferases, the following experiment was conducted. First, a gene encoding each luciferase was subcloned into pcDNA3.1 (+), which is a eukaryotic expression vector, and each vector was introduced into COS-7 cells. Two days after gene transfer, the relative luminescence intensity of luciferase secreted into each medium was compared using a luminescence reagent produced by Promega.

The test system of data set [7] is COS-7 cells. The data set can be described thus: Comparison of luminescence intensity of ALucs (Example 1-2). The settings on record: COS-7 cultured overnight, Promega assay solution, LAS-4000. The class given is cell-based, African green monkey. The text has this:
The artificial luciferase (ALuc) genes synthesized by the above process were subcloned into mammalian cell expression vectors (pcDNA3.1 (+)). Each expression vector was transfected with African green monkey kidney-derived COS-7 cells, and the luminescence intensity, luminescence stability, and red-shifted degree of artificial luciferases (ALucs) were compared (FIGS. 2 to 5).
First, the luminescence intensity of artificial luciferases (ALucs) was compared (FIG. 2). For the comparison, COS-7 cells containing a vector encoding each luciferase were cultured overnight, and then the relative luminescence intensity was measured by using an assay solution, which is a mixture of a cell lysis solution and a substrate, produced by Promega, and a luminescence image analyzer (LAS-4000).

Data set [8] relates to COS-7 cells. The data set can be described thus: Luminescence stability of ALucs after substrate injection (Example 1-3). The format is cell-based, African green monkey. The settings on record: Promega lysis and reaction solution. On the procedure:
The luminescence stability of the artificial luciferases (ALucs) of the present invention was examined in various respects (FIG. 3). COS-7 cells containing each luciferase gene were cultured for 9 hours, and treated with a cell lysis solution produced by Promega for 20 minutes. Temporal changes in luciferase luminescence intensity after the introduction of a substrate-containing reaction solution produced by Promega were observed every five minutes (FIG. 3A).
This experiment was expanded to artificial luciferases ALuc16 to ALuc25 (FIG. 3BC).

Data set [9] can be described thus: Heat resistance of ALucs in lysate (Example 1-4). The class given is physicochemical. The settings on record: 80° C. for 10 minutes. The procedure: The heat resistance and degree of extracellular secretion of artificial luciferases of the present invention were measured (FIG. 4). First, to measure heat resistance, COS-7 cells containing each luciferase were lysed in cell lysis solutions produced by Promega to prepare lysates. Subsequently, same samples were allowed to stand at room temperature or heated at 80° C. for 10 minutes, and changes in luminescence intensity were compared by using a (substrate-containing) reaction solution produced by Promega.

The subject of data set [10] is COS-7 cells. The data set can be described thus: Degree of extracellular secretion of ALucs (Example 1-4). The class given is cell-based, African green monkey. The settings on record: luminescence intensity of the medium, overnight culture. The procedure:
Further, each luciferase (ALuc) was introduced into COS-7 cells, culturing was performed overnight, and then the amount of each luciferase (ALuc) secreted from the cells was measured based on the luminescence intensity of the medium (FIG. 4B).

Data set [11] relates to COS-7 cells. The data set is described as follows: Mammalian two-hybrid assay with luciferase reporters (Example 1-9). The class given is cell-based, African green monkey. The procedure: First, using a known gene engineering technique, a novel reporter expression vector obtained by inserting a gene encoding MpLuc4 or ALuc16 into a commercially available reporter expression vector (pG5) was constructed. In addition, pG5-GLuc, which is the result of the researchers' previous study, was also prepared (FIG. 9A).
In addition to any one of the above three types of reporter expression vectors, a vector (pACT-MyoD) expressing a muscle regulatory factor (MyoD) and a vector (pBIND-ID) expressing a transcriptional regulator (ID) were cotransfected into COS-7 cells. After culturing overnight in a cell culturing device, a lysis solution and a substrate solution produced by Promega were used to cause a luminescent reaction, and difference in luminescence intensity varying according to the reporter difference was compared.
Along with the measurement, the luminescence value from the supernatant (medium) during cell culturing was simultaneously measured.

Data set [12] concerns stress hormone receptor (glucocorticoid receptor ligand binding domain; GR HLBD). The data set is described as follows: Integrated-molecule-format bioluminescent probes, ALuc16 bisection sites (Example 1-10). The format is cell-based. The settings on record: presence/absence of cortisol. The text has this:
First, ALuc was bisected into two segments, and arranged right and left. A stress hormone receptor (glucocorticoid receptor ligand binding domain; GR HLBD) and its binding peptide (LXXLL motif) were respectively connected to the end of the two segments. As shown in the lower row of FIG. 10A, the working mechanism of the probe is such that a molecule is folded in the presence of a ligand, thus recovering the luminescence intensity.
In the bisection of ALuc16, the probes were named as cSimgr8 (SEQ ID NO: 21) to cSimgr14 according to its bisection point. The bisection point corresponding to each plasmid is as follows: cSimgr8 (125/126), cSimgr9 (129/130), cSimgr10 (133/134), cSimgr11 (137/138), cSimgr12 (137/138; containing a mutant at the joint portion), cSimgr13 (141/142), and cSimgr14 (146/147).

B1: ALuc30: artificial luciferase containing a His tag, SEQ ID NO: 32 (protein)
chain: MMGIKVLFALICFALVQANHHHHHHHHDIVGVEGKFGTTDLETDLFTIVEDMNVISRDTDVDANRADRGRRGKLPGKKLPLEVLKELEANAQKAGCTRGCLICLSHIKCTAKMKKWLPGRCESWEGDKETGQGGIGEAIVDIPEIPGFKELAPMEQFIAQVDLCADCTTGCLKGLANVKCSALLKKWLPSRCAGFADKIQAQVDTIKGAGGS
modifications: His tag; Synthetic Aluc30
As to B1, in the data set on COS-7 cells [1], the “luminescence from cell medium” value is recorded as “strong bioluminescence”; the “luminescence value from lysate” value was “extremely higher than those of conventional GLuc and MpLuc4”. Further, the “prolonged enzymatic activity stability” value in data set [2] is reported as “maintained stable enzymatic activity until Day 25”. For the same molecule, in data set [3] (after long-term conservation (25 days)), the “time of maximum luminescence value after infusion of coelenterazine” value turned out to be 12 min. In addition, the “temporal change of luminescence after substrate injection” value in data set [3] (medium 25 days after expression) is on record as “several times higher”. Further, in the data set on COS-7 cells [4], the “luminescence intensity of luciferase secreted into the medium” value is “relatively high luminescence intensity”. Further, the “luminescence stability (general statement)” value (“luminescence stability” for short) in the data set on COS-7 cells [5] is “remarkably stable luminescence signals”.

B2: ALuc34: artificial luciferase containing a Flag-tag, SEQ ID NO: 36 (protein)
chain: B1 chain with H20M, H21M, H22D, H23Y, H24K, H25D, H26D, H27D, I29K
modifications: Flag tag; Synthetic Aluc34
Consider B2, for which, in the data set on COS-7 cells [4], the “luminescence intensity of luciferase secreted into the medium” value is “relatively high luminescence intensity”. Also, the relative luminescence intensity entry in the data set on COS-7 cells [6] was “relatively high luminescence intensity”. Further, the “luminescence stability” value with COS-7 cells [5] is “remarkably stable luminescence signals”.

B3: ALuc33: artificial luciferase containing an HA-tag, SEQ ID NO: 35 (protein)
chain: B1 chain with H20M, H21M, H22Y, H23P, H24Y, H25D, H26V, H27P, I29Y, V30A
modifications: HA tag; Synthetic ALuc33
For the molecule B3, the “luminescence intensity of luciferase secreted into the medium” value in the data set on COS-7 cells [4] was “relatively high luminescence intensity”. Also, in the data set on COS-7 cells [6], the relative luminescence intensity result is given as “relatively high luminescence intensity”. Besides, in the data set with COS-7 cells [5], the “luminescence stability” value is on record as “remarkably stable luminescence signals”.

B4: ALuc16: artificial luciferase, SEQ ID NO: 13 (protein)
chain: MMGIKVLFALICFALVQANPTENKDDIDIVGVEGKFGTTDLETDLFTIVEDMNVISRDTDVDANRADRGRRGKLPGKKLPLEVLKELEANAQKAGCTRGCLICLSHIKCTAKMKKWLPGRCESWEGDKETGQGGIGEAIVDIPEIPGFKDLEPMEQFIAQVDLCVDCTTGCLKGLANVKCSDLLKKWLPSRCATFASKIQAQVDKIKGAGGS
modifications: Synthetic ALuc16
B4: the “luminescence intensity higher than that of conventional GLuc, Renilla luciferase and MpLuc4” value in the data set with COS-7 cells [7] is listed as “about 50 folds”. Moreover, the “luminescence intensity (initial)” value in the data set with COS-7 cells [8] is reported as “advantageous initial luminescence intensity”. For the same molecule, in [9], the “change of luminescence intensity by heating” value is listed as “a remarkable reduction in luminescence intensity that may be due to heating was not observed”. The extracellular secretion entry with COS-7 cells [10] is “relatively high extracellular secretion”. Further, the “luminescence value from the supernatant (medium)” value in the data set on COS-7 cells [11] (during cell culturing) is listed as “slightly strong bioluminescence”. In addition, in the data set with COS-7 cells [11] (lysate, equal conditions, vs MpLuc4 and GLuc reporters), the “luminescence intensity as two-hybrid reporter” value is reported as “highest luminescence intensity”. For the same molecule, the “prolonged enzymatic activity stability” value in data set [2] is listed as “significant decrease in enzymatic activity”. Also, in data set [2] (after 25 days), the “remaining enzymatic (luminescence) activity vs initial” value amounted to 20%. Also, the “luminescence stability” value with COS-7 cells [5] was “remarkably stable luminescence signals”.

B5: cSimgr8: integrated-molecule-format bioluminescent probe, ALuc16 bisected at 125/126, SEQ ID NO: 21 (protein)
chain: MNALLRYLLDKDGSGIGEAIVDIPEIPGFKDLEPMEQFIAQVDLCVDCTTGCLKGLANVKCSDLLKKWLPSRCATFASKIQAQVDKIKGAGGLSGSGGNPTENKDDIDIVGVEGKFGTTDLETDLFTIVEDMNVISRDTDVDANRADRGRRGKLPGKKLPLEVLKELEANAQKAGCTRGCLICLSHIKCTAKMKKWLPGRCESWEGDKETGQGGGGGTMNLEARKTKKKIKGIQQATTGVSQETSENPGNKTIVPATLPQLTPTLVSLLEVIEPEVLYAGYDSSVPDSTWRIMTTLNMLGGRQVIAAVKWAKAIPGFRNLHLDDQMTLLQYSWMFLMAFALGWRSYRQSSANLLCFAPDLIINEQRMTLPCMYDQCKHMLYVSSELHRLQVSYEEYLCMKTLLLLSSVPKDGLKSQELFDEIRMTYIKELGKAIVKREGNSSQNWQRFYQLTKLLDSMHEVVENLLNYCFQTFLDKTMSIEFPEMLAEIITNQIPKYSNGNIKKLLFHQK
modifications: Synthetic cSimgr8 (single-chain probe)
With B5, in data set [12], the “S/N ratio of probe” value is reported as “good S/N ratio” and the “absolute luminescence intensity of probe” value was “low absolute luminescence intensity”.
